Patent publication US20200165335A1 (Seagen, published 2020)

T1: human LIV-1 (human, UniProt Q13433 29-755)
T1 construct: also called hLIV-1; Q13433
T1 sequence: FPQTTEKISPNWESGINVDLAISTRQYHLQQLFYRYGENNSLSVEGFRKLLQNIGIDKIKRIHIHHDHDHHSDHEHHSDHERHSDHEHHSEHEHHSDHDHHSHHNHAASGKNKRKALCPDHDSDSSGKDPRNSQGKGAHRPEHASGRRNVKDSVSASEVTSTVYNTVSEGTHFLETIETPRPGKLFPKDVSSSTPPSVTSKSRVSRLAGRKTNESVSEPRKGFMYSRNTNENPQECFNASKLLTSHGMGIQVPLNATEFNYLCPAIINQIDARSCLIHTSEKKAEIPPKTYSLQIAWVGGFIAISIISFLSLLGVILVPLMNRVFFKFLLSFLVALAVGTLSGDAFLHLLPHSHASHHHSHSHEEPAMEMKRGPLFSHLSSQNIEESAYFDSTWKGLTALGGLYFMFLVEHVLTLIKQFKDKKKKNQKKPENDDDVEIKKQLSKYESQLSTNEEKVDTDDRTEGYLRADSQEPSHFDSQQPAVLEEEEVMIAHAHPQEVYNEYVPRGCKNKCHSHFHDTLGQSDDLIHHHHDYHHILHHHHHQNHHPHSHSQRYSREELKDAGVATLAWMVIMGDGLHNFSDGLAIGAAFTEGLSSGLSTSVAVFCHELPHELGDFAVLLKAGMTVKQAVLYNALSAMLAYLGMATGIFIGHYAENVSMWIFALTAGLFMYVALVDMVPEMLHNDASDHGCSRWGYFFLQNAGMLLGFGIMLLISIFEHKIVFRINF


Assays:
human LIV-1 [1] = molecular target: T1, human LIV-1; experiment: competition flow cytometry, CHO cells expressing recombinant LIV-1, vs 5 nM AF647-labelled BR2-22a
Procedure: (§1) 1×10⁵ CHO cells expressing recombinant LIV-1 in PBS were aliquoted into each well of a 96-well v-bottom plates on ice. […] Cells were pelleted and washed 3 times with PBS. The cells were then pelleted and resuspended in 125 μL of PBS/BSA. Fluorescence was analyzed by flow cytometery, using percent of saturated fluorescent signal to determine percent labeled humanized BR2-22a antibody bound and to subsequently extrapolate the EC50 by fitting the data to a sigmoidal dose-response curve with variable slope.
All permutations of these five heavy chains and six light chains were then tested in a competition assay compared with BR2-22a (see FIG. 17).

human LIV-1 [2] = molecular target: T1, human LIV-1; experiment: competition flow cytometry, CHO cells expressing human LIV-1, vs 5 nM AF647-labelled BR2-14a
Procedure: as §1, with “recombinant human” for “recombinant”, “in PBS/BSA” for “in PBS”, “with PBS/BSA.” for “with PBS.”, “were” for “were then”, “flow cytometry,” for “flow cytometery,”, “labeled murine LIV-1 mAb” for “labeled humanized BR2-22a antibody”

Binder | binding result (human LIV-1 [2]) | other results
humanized BR2-22a antibody HALF (antibody, V domains shown, also called hLIV-22 HA + hLIV-22 LF) VH: QVQLVQSGAEVKKPGASVKVSCKASGYTFTDYYMHWVRQAPGQGLEWMGWIDPENGDTEYGPKFQGRVTMTRDTSISTAYMELSRLRSDDTAVYYCARHNAHYGTWFAYWGQGTLVTVSS VL: DVVMTQSPLSLPVTLGQPASISCRSSQSLLHSSGNTYLEWYLQRPGQSPKPLIYKISTRFSGVPDRFSGSGSGTDFTLKISRVEAEDVGVYYCFQGSHVPYTFGGGTKVEIKR | – | EC50 (human LIV-1 [1]): 33.2 µg/mL
humanized BR2-14a antibody HELF (antibody, V domains shown, also called hLIV-1 HE + hLIV-1 LF) VH: QVQLVQSGAEVKKPGASVKVSCKASGFNIEDYYMHWVRQAPGQGLEWIGWIDPENGDTEYAPTFQGKATMTADTSINTAYMELSRLRSDDTAVYYCNVHDAHYGTWFAYWGQGTLVTVSS VL: DVVMTQSPLSLPVTLGQPASISCRSSQSIIRNDGNTYLEWYLQKPGQSPKLLIYRVSNRFSGVPDRFSGSGSGTDFTLKISRVEAEDVGVYYCFQGSHVPYTFGGGTKVEIKR | – | EC50 (human LIV-1 [2]): 1.5 µg/mL
humanized BR2-14a antibody HCLE (antibody, V domains shown, also called hLIV-1 HC + hLIV-1 LE) VH: QVQLVQSGAEVKKPGASVKVSCKASGYTFTDYYMHWVRQAPGQGLEWMGWIDPENGDTEYAPTFQGKATMTADTSISTAYMELSRLRSDDTAVYYCARHDAHYGTWFAYWGQGTLVTVSS VL: DVVMTQSPLSLPVTLGQPASISCRSSQSIIRNDGNTYLEWFQQRPGQSPRLLIYRVSNRFSGVPDRFSGSGSGTDFTLKISRVEAEDVGVYYCFQGSHVPYTFGGGTKVEIKR | no binding (tested: 0.038 nM to 600 nM tested) | –
humanized BR2-14a antibody HCLA (antibody, V domains shown, also called hLIV-1 HC + hLIV-1 LA) VH: QVQLVQSGAEVKKPGASVKVSCKASGYTFTDYYMHWVRQAPGQGLEWMGWIDPENGDTEYAPTFQGKATMTADTSISTAYMELSRLRSDDTAVYYCARHDAHYGTWFAYWGQGTLVTVSS VL: DVVMTQSPLSLPVTLGQPASISCRSSQSIIRNDGNTYLEWFQQRPGQSPRRLIYRVSNRFSGVPDRFSGSGSGTDFTLKISRVEAEDVGVYYCFQGSHVPYTFGGGTKVEIKR | no binding (tested: 0.038 nM to 600 nM tested) | –
humanized BR2-14a antibody HDLA (antibody, V domains shown, also called hLIV-1 HD + hLIV-1 LA) VH: QVQLVQSGAEVKKPGASVKVSCKASGFTFTDYYMHWVRQAPGQGLEWMGWIDPENGDTEYAPTFQGRVTMTRDTSISTAYMELSRLRSDDTAVYYCNVHDAHYGTWFAYWGQGTLVTVSS VL: DVVMTQSPLSLPVTLGQPASISCRSSQSIIRNDGNTYLEWFQQRPGQSPRRLIYRVSNRFSGVPDRFSGSGSGTDFTLKISRVEAEDVGVYYCFQGSHVPYTFGGGTKVEIKR | no binding (tested: 0.038 nM to 600 nM tested) | –
humanized BR2-14a antibody HDLC (antibody, V domains shown, also called hLIV-1 HD + hLIV-1 LC) VH: QVQLVQSGAEVKKPGASVKVSCKASGFTFTDYYMHWVRQAPGQGLEWMGWIDPENGDTEYAPTFQGRVTMTRDTSISTAYMELSRLRSDDTAVYYCNVHDAHYGTWFAYWGQGTLVTVSS VL: DVVMTQSPLSLPVTLGQPASISCRSSQSIIRNDGNTYLEWFLQRPGQSPRRLIYRVSNRFSGVPDRFSGSGSGTDFTLKISRVEAEDVGVYYCFQGSHVPYTFGGGTKVEIKR | no binding (tested: 0.038 nM to 600 nM tested) | –
humanized BR2-14a antibody HDLE (antibody, V domains shown, also called hLIV-1 HD + hLIV-1 LE) VH: QVQLVQSGAEVKKPGASVKVSCKASGFTFTDYYMHWVRQAPGQGLEWMGWIDPENGDTEYAPTFQGRVTMTRDTSISTAYMELSRLRSDDTAVYYCNVHDAHYGTWFAYWGQGTLVTVSS VL: DVVMTQSPLSLPVTLGQPASISCRSSQSIIRNDGNTYLEWFQQRPGQSPRLLIYRVSNRFSGVPDRFSGSGSGTDFTLKISRVEAEDVGVYYCFQGSHVPYTFGGGTKVEIKR | no binding (tested: 0.038 nM to 600 nM tested) | –
humanized BR2-14a antibody HBLE (antibody, V domains shown, also called hLIV-1 HB + hLIV-1 LE) VH: QVQLVQSGAEVKKPGASVKVSCKASGYTIEDYYMHWVRQAPGQGLEWMGWIDPENGDTEYAPTFQGRVTMTRDTSINTAYMELSRLRSDDTAVYYCARHDAHYGTWFAYWGQGTLVTVSS VL: DVVMTQSPLSLPVTLGQPASISCRSSQSIIRNDGNTYLEWFQQRPGQSPRLLIYRVSNRFSGVPDRFSGSGSGTDFTLKISRVEAEDVGVYYCFQGSHVPYTFGGGTKVEIKR | no binding (tested: 0.038 nM to 600 nM tested) | –
humanized BR2-14a antibody HCLC (antibody, V domains shown, also called hLIV-1 HC + hLIV-1 LC) VH: QVQLVQSGAEVKKPGASVKVSCKASGYTFTDYYMHWVRQAPGQGLEWMGWIDPENGDTEYAPTFQGKATMTADTSISTAYMELSRLRSDDTAVYYCARHDAHYGTWFAYWGQGTLVTVSS VL: DVVMTQSPLSLPVTLGQPASISCRSSQSIIRNDGNTYLEWFLQRPGQSPRRLIYRVSNRFSGVPDRFSGSGSGTDFTLKISRVEAEDVGVYYCFQGSHVPYTFGGGTKVEIKR | no binding (tested: 0.038 nM to 600 nM tested) | –
humanized BR2-22a antibody HCLD (antibody, V domains shown, also called hLIV-22 HC + hLIV-22 LD) VH: QVQLVQSGAEVKKPGASVKVSCKASGYTFTDYYMHWVRQAPGQGLEWMGWIDPENGDTEYGPKFQGKATMTADTSISTAYMELSRLRSDDTAVYYCARHNAHYGTWFAYWGQGTLVTVSS VL: DVVMTQSPLSLPVTLGQPASISCRSSQSLLHSSGNTYLEWFQQRPGQSPKRLIYKISTRFSGVPDRFSGSGSGTDFTLKISRVEAEDVGVYYCFQGSHVPYTFGGGTKVEIKR | – | binding result (human LIV-1 [1]): no binding (tested: 0.038 nM to 600 nM tested)
humanized BR2-22a antibody HBLB (antibody, V domains shown, Not the same molecule as HBLB of the BR2-14a series (hLIV14); also called hLIV-22 HB + hLIV-22 LB) VH: QVQLVQSGAEVKKPGASVKVSCKASGYTIEDYYMHWVRQAPGQGLEWMGWIDPENGDTEYGPKFQGRVTMTRDTSINTAYMELSRLRSDDTAVYYCARHNAHYGTWFAYWGQGTLVTVSS VL: DVVMTQSPLSLPVTLGQPASISCRSSQSLLHSSGNTYLEWYQQRPGQSPRRLIYKISTRFSGVPDRFSGSGSGTDFTLKISRVEAEDVGVYYCFQGSHVPYTFGGGTKVEIKR | – | EC50 (human LIV-1 [1]): 4.9 µg/mL
humanized BR2-22a antibody HBLF (antibody, V domains shown, also called hLIV-22 HB + hLIV-22 LF) VH: QVQLVQSGAEVKKPGASVKVSCKASGYTIEDYYMHWVRQAPGQGLEWMGWIDPENGDTEYGPKFQGRVTMTRDTSINTAYMELSRLRSDDTAVYYCARHNAHYGTWFAYWGQGTLVTVSS VL: DVVMTQSPLSLPVTLGQPASISCRSSQSLLHSSGNTYLEWYLQRPGQSPKPLIYKISTRFSGVPDRFSGSGSGTDFTLKISRVEAEDVGVYYCFQGSHVPYTFGGGTKVEIKR | – | EC50 (human LIV-1 [1]): 6.5 µg/mL
humanized BR2-22a antibody HDLF (antibody, V domains shown, also called hLIV-22 HD + hLIV-22 LF) VH: QVQLVQSGAEVKKPGASVKVSCKASGLTFTDYYMHWVRQAPGQGLEWMGWIDPENGDTEYGPKFQGRVTMTRDTSISTAYMELSRLRSDDTAVYYCTVHNAHYGTWFAYWGQGTLVTVSS VL: DVVMTQSPLSLPVTLGQPASISCRSSQSLLHSSGNTYLEWYLQRPGQSPKPLIYKISTRFSGVPDRFSGSGSGTDFTLKISRVEAEDVGVYYCFQGSHVPYTFGGGTKVEIKR | – | EC50 (human LIV-1 [1]): 14.4 µg/mL
humanized BR2-22a antibody HCLC (antibody, V domains shown, also called hLIV-22 HC + hLIV-22 LC) VH: QVQLVQSGAEVKKPGASVKVSCKASGYTFTDYYMHWVRQAPGQGLEWMGWIDPENGDTEYGPKFQGKATMTADTSISTAYMELSRLRSDDTAVYYCARHNAHYGTWFAYWGQGTLVTVSS VL: DVVMTQSPLSLPVTLGQPASISCRSSQSLLHSSGNTYLEWFLQRPGQSPRRLIYKISTRFSGVPDRFSGSGSGTDFTLKISRVEAEDVGVYYCFQGSHVPYTFGGGTKVEIKR | – | binding result (human LIV-1 [1]): no binding (tested: 0.038 nM to 600 nM tested)
humanized BR2-14a antibody HELD (antibody, V domains shown, also called hLIV-1 HE + hLIV-1 LD) VH: QVQLVQSGAEVKKPGASVKVSCKASGFNIEDYYMHWVRQAPGQGLEWIGWIDPENGDTEYAPTFQGKATMTADTSINTAYMELSRLRSDDTAVYYCNVHDAHYGTWFAYWGQGTLVTVSS VL: DVVMTQSPLSLPVTLGQPASISCRSSQSIIRNDGNTYLEWFQQRPGQSPKRLIYRVSNRFSGVPDRFSGSGSGTDFTLKISRVEAEDVGVYYCFQGSHVPYTFGGGTKVEIKR | – | EC50 (human LIV-1 [2]): 24.2 µg/mL
humanized BR2-14a antibody HELC (antibody, V domains shown, also called hLIV-1 HE + hLIV-1 LC) VH: QVQLVQSGAEVKKPGASVKVSCKASGFNIEDYYMHWVRQAPGQGLEWIGWIDPENGDTEYAPTFQGKATMTADTSINTAYMELSRLRSDDTAVYYCNVHDAHYGTWFAYWGQGTLVTVSS VL: DVVMTQSPLSLPVTLGQPASISCRSSQSIIRNDGNTYLEWFLQRPGQSPRRLIYRVSNRFSGVPDRFSGSGSGTDFTLKISRVEAEDVGVYYCFQGSHVPYTFGGGTKVEIKR | no binding (tested: 0.038 nM to 600 nM tested) | –
